Data on two proteins can be found in US10385116 (OMNIOX, dated 2019).

Data set [1] deals with the molecule itself. The data set is described as follows: analytical size exclusion chromatography (Superdex 200 10/300 GL); self-association into a homotrimer. In general terms: SEC sorts molecules by how far they enter the pores of the column.
Data set [2] concerns the molecule itself. The data set is described as follows: size exclusion chromatography; self-association of H-NOX+foldon monomers into a homotrimer.

B1: Thermoanaerobacter tengcongensis L144F H-NOX-foldon-His6 fusion protein (monomer unit) (other)
chain: MKGTIVGTWIKTLRDLYGNDVVDESLKSVGWEPDRVITPLEDIDDDEVRRIFAKVSEKTGKNVNEIWREVGRQNIKTFSEWFPSYFAGRRLVNFLMMMDEVHLQLTKMIKGATPPRLIAKPVAKDAIEMEYVSKRKMYDYFLGFIEGSSKFFKEEISVEEVERGEKDGFSRLKVRIKFKNPVFEYKKNLEGSGGYIPEAPRDGQAYVRKDGEWVLLSTFLRGSHHHHHH
modifications: heme (porphyrin IX) cofactor bound non-covalently (so in the source)
notes: 229 amino acids, 26,677 AMU as a monomer; Three of these chains associate through the foldon domain to form the about 80 kDa H-NOX trimer; It is entered as the monomer unit so that the self-association can be written as a pair; also called H-NOX-foldon fusion protein; H-NOX-foldon protein
With B1, the binding result in data set [1] was “binds”.

B2: H-NOX variant L144F-foldon fusion protein with no His6 tag at the C-terminus (monomer unit of the trimer) (other)
chain: MKGTIVGTWIKTLRDLYGNDVVDESLKSVGWEPDRVITPLEDIDDDEVRRIFAKVSEKTGKNVNEIWREVGRQNIKTFSEWFPSYFAGRRLVNFLMMMDEVHLQLTKMIKGATPPRLIAKPVAKDAIEMEYVSKRKMYDYFLGFIEGSSKFFKEEISVEEVERGEKDGFSRLKVRIKFKNPVFEYKKNLEGSGGYIPEAPRDGQAYVRKDGEWVLLSTFL
modifications: non-covalently bound heme cofactor is not carried by the letters
notes: No His6 tag; also called H-NOX+foldon; L144F H-NOX trimer without His6
On to B2, for which, in data set [2], the binding result is “binds”.
